Key:
Test in all cases: cell-based or functional assay
[1] = target: Env of HIV isolate 191821.E6.1 (clade D) (HIV)
[2] = target: HIV Env of isolate Q769.d22 (HIV)
[3] = target: HIV Env of isolate BB201.B42 (HIV)
[4] = target: HIV Env of isolate 0815.v3.c3 (HIV)
[5] = target: Env of HIV isolate 6471.v1.c16 (clade C) (HIV)
[6] = target: HIV Env of isolate 0013095-2.11 (HIV)
[7] = target: Env of HIV isolate ZA012.29 (clade C) (HIV)
[8] = target: Env of HIV isolate CE703010217.B6 (clade C) (HIV)
[9] = target: Env of HIV isolate CNE57 (clade B) (HIV)
[10] = target: Env of HIV isolate UG037.8 (clade A) (HIV)
[11] = target: Env of HIV isolate CAP210.E8 (clade C) (HIV)
[12] = target: Env of HIV isolate PVO.04 (clade B) (HIV)
[13] = target: HIV Env of isolate 6471.v1.c16 (HIV)
[14] = target: HIV Env of isolate CE703010217.B6 (HIV)
[15] = target: HIV Env of isolate ZA012.29 (HIV)
[16] = target: HIV Env of isolate BR025.9 (HIV)
[17] = target: Env of HIV isolate 3016.v5.c45 (clade D) (HIV)
[18] = target: HIV Env of isolate KER2018.11 (HIV)
[19] = target: HIV Env of isolate A03349M1.vrc4a (HIV)
[20] = target: Env of HIV isolate KER2008.12 (clade A) (HIV)
[21] = target: Env of HIV isolate ZM233.6 (clade C) (HIV)
[22] = target: Env of HIV isolate ZM215.8 (clade C) (HIV)
[23] = target: Env of HIV isolate CNE31 (clade C) (HIV)
[24] = target: HIV Env of isolate BJOX009000.02.4 (HIV)
[25] = target: HIV Env of isolate TH023.6 (HIV)
[26] = target: HIV Env of isolate 5768.04 (HIV)
[27] = target: Envelope of SVA.MLV
[28] = target: HIV Env of isolate 6535.3 (HIV)
[29] = target: Env of HIV isolate MN.3 (clade B) (HIV)
[30] = target: HIV Env of isolate MI369.A5 (HIV)
[31] = target: Env of HIV isolate 00836-2.5 (clade C) (HIV)
[32] = target: Env of HIV isolate CNE10 (clade B) (HIV)
[33] = target: Env of HIV isolate 6838.v1.c35 (clade C) (HIV)
[34] = target: Env of HIV isolate Ce1176.A3 (clade C) (HIV)
[35] = target: HIV Env of isolate 235-47 (HIV)
[36] = target: Env of HIV isolate SS1196.01 (clade B) (HIV)
[37] = target: HIV Env of isolate CNE53 (HIV)
[38] = target: HIV Env of isolate YU2.DG (HIV) (UniProt P35961)
[39] = target: Env of HIV isolate 3718.v3.c11 (clade A) (HIV)
[40] = target: HIV Env of isolate CNE57 (HIV)
[41] = target: HIV Env of isolate CAP256.206.C9 (HIV)
[42] = target: Env of HIV isolate AC10.29 (clade B) (HIV)
[43] = target: Env of HIV isolate CNE15 (clade BC) (HIV)
[44] = target: Env of HIV isolate BR025.9 (clade C) (HIV)
[45] = target: HIV Env of isolate KNH1209.18 (HIV)
[46] = target: HIV Env of isolate T250-4 (HIV)
[47] = target: Env of HIV isolate TRJO.58 (clade B) (HIV)
[48] = target: Env of HIV isolate C1080.c3 (clade AE) (HIV)
[49] = target: HIV Env of isolate X1193.c1 (HIV)
[50] = target: HIV Env of isolate ZM215.8 (HIV)
[51] = target: Env of HIV isolate X1632.S2.B10 (clade G) (HIV)
[52] = target: Env of HIV isolate 3365.v2.c20 (clade A) (HIV)
[53] = target: Env of HIV isolate BG1168.01 (clade B) (HIV)

Chain of HIV Env of isolate YU2.DG (HIV) (P35961 32-843 limits assumed): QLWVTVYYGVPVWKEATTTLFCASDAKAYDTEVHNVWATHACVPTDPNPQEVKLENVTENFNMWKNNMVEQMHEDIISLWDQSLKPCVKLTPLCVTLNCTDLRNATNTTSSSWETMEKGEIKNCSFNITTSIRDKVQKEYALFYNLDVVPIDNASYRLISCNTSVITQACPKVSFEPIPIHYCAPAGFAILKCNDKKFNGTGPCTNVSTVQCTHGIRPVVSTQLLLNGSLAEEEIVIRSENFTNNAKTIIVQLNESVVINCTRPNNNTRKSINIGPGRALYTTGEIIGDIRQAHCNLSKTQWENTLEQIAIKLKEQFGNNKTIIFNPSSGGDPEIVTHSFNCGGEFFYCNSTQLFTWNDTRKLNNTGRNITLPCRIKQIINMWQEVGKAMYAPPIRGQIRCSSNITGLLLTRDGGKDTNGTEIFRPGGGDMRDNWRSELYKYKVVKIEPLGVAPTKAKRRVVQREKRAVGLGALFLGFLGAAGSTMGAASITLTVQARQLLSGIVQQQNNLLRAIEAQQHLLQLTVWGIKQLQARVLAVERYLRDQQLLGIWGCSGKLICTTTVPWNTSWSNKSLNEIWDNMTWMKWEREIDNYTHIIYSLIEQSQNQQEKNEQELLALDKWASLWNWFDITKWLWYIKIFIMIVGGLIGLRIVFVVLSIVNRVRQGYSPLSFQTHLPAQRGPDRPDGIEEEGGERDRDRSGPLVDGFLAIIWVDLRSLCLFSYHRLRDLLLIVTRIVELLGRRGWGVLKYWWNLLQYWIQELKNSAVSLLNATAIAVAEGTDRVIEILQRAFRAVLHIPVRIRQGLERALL

PGT121 (antibody)
IC50, pseudovirus neutralization [1]: > 50 µg/mL
IC80 [2]: > 50 µg/mL
IC80 [3]: 0.0243 µg/mL
IC80 [4]: 0.112 µg/mL
IC50, pseudovirus neutralization [5]: > 50 µg/mL
IC80, pseudovirus neutralization [6]: > 50 µg/mL
IC50, pseudovirus neutralization [7]: 0.0117 µg/mL
IC50, pseudovirus neutralization [8]: 0.007 µg/mL
IC50, pseudovirus neutralization [9]: 0.0283 µg/mL
IC50, pseudovirus neutralization [10]: 0.092 µg/mL
IC50, pseudovirus neutralization [11]: 4.28 µg/mL
IC50, pseudovirus neutralization [12]: 0.189 µg/mL
IC80, pseudovirus neutralization [13]: > 50 µg/mL
IC80, pseudovirus neutralization [14]: 0.0173 µg/mL
IC80, pseudovirus neutralization [15]: 0.0347 µg/mL
IC80, pseudovirus neutralization [16]: 0.0253 µg/mL
IC50, pseudovirus neutralization [17]: > 50 µg/mL
IC80 [18]: > 50 µg/mL
IC80, pseudovirus neutralization [19]: 0.359 µg/mL
IC50, pseudovirus neutralization [20]: 0.553 µg/mL
IC50, pseudovirus neutralization [21]: 0.731 µg/mL
IC50, pseudovirus neutralization [22]: 0.0307 µg/mL
IC50, pseudovirus neutralization [23]: 0.654 µg/mL
IC80 [24]: 9.02 µg/mL
IC80 [25]: > 50 µg/mL
IC80 [26]: 0.917 µg/mL
IC80, pseudovirus neutralization [27]: > 50 µg/mL
IC80 [28]: 0.0217 µg/mL
IC50, pseudovirus neutralization [29]: > 50 µg/mL
IC80 [30]: 0.128 µg/mL
IC50, pseudovirus neutralization [31]: > 50 µg/mL
IC50, pseudovirus neutralization [32]: 0.0193 µg/mL
IC50, pseudovirus neutralization [33]: 0.0613 µg/mL
IC50, pseudovirus neutralization [34]: 0.0243 µg/mL
IC80 [35]: 0.614 µg/mL
IC50, pseudovirus neutralization [36]: 0.0123 µg/mL
IC80, pseudovirus neutralization [37]: 0.0723 µg/mL
IC80 [38]: 0.126 µg/mL
IC50, pseudovirus neutralization [39]: 0.559 µg/mL
IC80 [40]: 0.0777 µg/mL
IC80, pseudovirus neutralization [41]: 0.046 µg/mL
IC50, pseudovirus neutralization [42]: 0.067 µg/mL
IC50, pseudovirus neutralization [43]: 6.64 µg/mL
IC50, pseudovirus neutralization [44]: 0.00967 µg/mL
IC80 [45]: 0.0287 µg/mL
IC80 [46]: 0.0123 µg/mL
IC50, pseudovirus neutralization [47]: 1.63 µg/mL
IC50, pseudovirus neutralization [48]: > 50 µg/mL
IC80, pseudovirus neutralization [49]: 0.147 µg/mL
IC80, pseudovirus neutralization [50]: 0.084 µg/mL
IC50, pseudovirus neutralization [51]: > 50 µg/mL
IC50, pseudovirus neutralization [52]: 0.112 µg/mL
IC50, pseudovirus neutralization [53]: > 50 µg/mL
